Source: PMC4108476

Target: T1, [2Fe-2S]-IscR wild type (Escherichia coli, UniProt P0AGK8 1-162)
T1 sequence: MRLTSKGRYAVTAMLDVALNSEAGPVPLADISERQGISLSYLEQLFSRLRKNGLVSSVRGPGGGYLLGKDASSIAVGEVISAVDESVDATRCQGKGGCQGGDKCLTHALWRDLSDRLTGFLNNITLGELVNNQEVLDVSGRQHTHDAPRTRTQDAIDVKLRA
Assay: fluorescence anisotropy

B1: PiscR site B 30-mer (dsDNA)
DNA 1: AAATAGTTGACCAATTTACTCGGGAATGTC
DNA 2: GACATTCCCGAGTAAATTGGTCAACTATTT
- Kd: 112 ± 2 nM
